# From the supplement of paper PMC5998384
# Key:
# [1] = system: HeLa Kyoto; assay: solubility change mitosis vs G1/S (difference of NP-40 vs SDS log2 ratios) (log2 ratio difference); higher = more soluble in mitosis
# [2] = system: HeLa Kyoto; assay: thermal stability score vs G1/S (z-score of summed log2 fold changes over temperatures); higher = more thermally stable than in G1/S
# [3] = system: HeLa Kyoto; assay: solubility in G1/S (NP-40 vs SDS abundance) (log2 ratio); higher = more soluble; conditions: cell cycle stage: G1/S
# [4] = system: HeLa Kyoto; assay: melting temperature (median over replicates), in situ; higher = more thermally stable
# [5] = cell cycle stage: early G1 (4.5 h after nocodazole release)
# 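For melting temperature (median over replicates), in situ in this document: HeLa Kyoto cells synchronized by double thymidine or nocodazole block, proteins quantified by TMT10plex mass spectrometry, three independent biological replicates.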
# 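For solubility change mitosis vs G1/S (difference of NP-40 vs SDS log2 ratios) in this document: synchronized HeLa Kyoto cells (double thymidine block for G1/S, nocodazole release for mitosis), protein amounts in NP-40 versus SDS lysates quantified by mass spectrometry, three biological replicates.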
# 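For solubility in G1/S (NP-40 vs SDS abundance) in this document: HeLa Kyoto cells arrested at G1/S by double thymidine block, proteins quantified by TMT10plex mass spectrometry in mild NP-40 versus SDS extracts, three biological replicates.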
# 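For thermal stability score vs G1/S (z-score of summed log2 fold changes over temperatures) in this document: synchronized HeLa Kyoto cells, proteins quantified by TMT10plex mass spectrometry, three biological replicates, mitosis taken 0.5 h after nocodazole release, G1/S directly after double thymidine block.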
Substance,solubility change mitosis (log2) [1],"thermal stability score [2, 5]",thermal stability score ([2]; cell cycle stage: mitosis),solubility in G1/S (log2) [3],melting temperature ([4]; cell cycle stage: G1/S),melting temperature ([4]; cell cycle stage: mitosis)
MAPSTPLLTVRGSEGLYMVNGPPHFTESTVFPRESGKNCKVCIFSKDGTLFAWGNGEKVNIISVTNKGLLHSFDLLKAVCLEFSPKNTVLATWQPYTTSKDGTAGIPNLQLYDVKTGTCLKSFIQKKMQNWCPSWSEDETLCARNVNNEVHFFENNNFNTIANKLHLQKINDFVLSPGPQPYKVAVYVPGSKGAPSFVRLYQYPNFAGPHAALANKSFFKADKVTMLWNKKATAVLVIASTDVDKTGASYYGEQTLHYIATNGESAVVQLPKNGPIYDVVWNSSSTEFCAVYGFMPAKATIFNLKCDPVFDFGTGPRNAAYYSPHGHILVLAGFGNLRGQMEVWDVKNYKLISKPVASDSTYFAWCPDGEHILTATCAPRLRVNNGYKIWHYTGSILHKYDVPSNAELWQVSWQPFLDGIFPAKTITYQAVPSEVPNEEPKVATAYRPPALRNKPITNSKLHEEEPPQNMKPQSGNDKPLSKTALKNQRKHEAKKAAKQEARSDKSPDLAPTPAPQSTPRNTVSQSISGDPEIDKKIKNLKKKLKAIEQLKEQAATGKQLEKNQLEKIQKETALLQELEDLELGI [EIF2A],-0.121,-0.606,-1.22,0.224,52.1 °C,51.7 °C
MGYFRCARAGSFGRRRKMEPSTAARAWALFWLLLPLLGAVCASGPRTLVLLDNLNVRETHSLFFRSLKDRGFELTFKTADDPSLSLIKYGEFLYDNLIIFSPSVEDFGGNINVETISAFIDGGGSVLVAASSDIGDPLRELGSECGIEFDEEKTAVIDHHNYDISDLGQHTLIVADTENLLKAPTIVGKSSLNPILFRGVGMVADPDNPLVLDILTGSSTSYSFFPDKPITQYPHAVGKNTLLIAGLQARNNARVIFSGSLDFFSDSFFNSAVQKAAPGSQRYSQTGNYELAVALSRWVFKEEGVLRVGPVSHHRVGETAPPNAYTVTDLVEYSIVIQQLSNGKWVPFDGDDIQLEFVRIDPFVRTFLKKKGGKYSVQFKLPDVYGVFQFKVDYNRLGYTHLYSSTQVSVRPLQHTQYERFIPSAYPYYASAFSMMLGLFIFSIVFLHMKEKEKSD [DDOST],-0.163,2.5,2.41,-0.0357,54.1 °C,54.2 °C
MGKEQELLEAARTGHLPAVEKLLSGKRLSSGFGGGGGGGSGGGGGGSGGGGGGLGSSSHPLSSLLSMWRGPNVNCVDSTGYTPLHHAALNGHKDVVEVLLRNDALTNVADSKGCYPLHLAAWKGDAQIVRLLIHQGPSHTRVNEQNNDNETALHCAAQYGHTEVVKVLLEELTDPTMRNNKFETPLDLAALYGRLEVVKMLLNAHPNLLSCNTKKHTPLHLAARNGHKAVVQVLLDAGMDSNYQTEMGSALHEAALFGKTDVVQILLAAGTDVNIKDNHGLTALDTVRELPSQKSQQIAALIEDHMTGKRSTKEVDKTPPPQPPLISSMDSISQKSQGDVEKAVTELIIDFDANAEEEGPYEALYNAISCHSLDSMASGRSSDQDSTNKEAEAAGVKPAGVRPRERPPPPAKPPPDEEEEDHIDKKYFPLTASEVLSMRPRIHGSAAREEDEHPYELLLTAETKKVVLVDGKTKDHRRSSSSRSQDSAEGQDGQVPEQFSGLLHGSSPVCEVGQDPFQLLCTAGQSHPDGSPQQGACHKASMQLEETGVHAPGASQPSALDQSKRVGYLTGLPTTNSRSHPETLTHTASPHPGGAEEGDRSGARSRAPPTSKPKAELKLSRSLSKSDSDLLTCSPTEDATMGSRSESLSNCSIGKKRLEKSPSFASEWDEIEKIMSSIGEGIDFSQERQKISGLRTLEQSVGEWLESIGLQQYESKLLLNGFDDVHFLGSNVMEEQDLRDIGISDPQHRRKLLQAARSLPKVKALGYDGNSPPSVPSWLDSLGLQDYVHSFLSSGYSSIDTVKNLWELELVNVLKVQLLGHRKRIIASLADRPYEEPPQKPPRFSQLRCQDLLSQTSSPLSQNDSCTGRSADLLLPPGDTGRRRHDSLHDPAAPSRAERFRIQEEHREAKLTLRPPSLAAPYAPVQSWQHQPEKLIFESCGYEANYLGSMLIKDLRGTESTQDACAKMRKSTEHMKKIPTIILSITYKGVKFIDASNKNVIAEHEIRNISCAAQDPEDLCTFAYITKDLQTSHHYCHVFSTVDVNLTYEIILTLGQAFEVAYQLALQAQKSRATGASAAEMIETKSSKPVPKPRVGVRKSALEPPDMDQDAQSHASVSWVVDPKPDSKRSLSTN [ANKS1A],-0.0097,0.94,1.51,0.191,49.9 °C,50.1 °C
MCDIEEATNQLLDVNLHENQKSVQVTESDLGSESELLVTIGATVPTGFEQTAADEVREKLGSSCKISRDRGKIYFVISVESLAQVHCLRSVDNLFVVVQEFQDYQFKQTKEEVLKDFEDLAGKLPWSNPLKVWKINASFKKKKAKRKKINQNSSKEKINNGQEVKIDQRNVKKEFTSHALDSHILDYYENPAIKEDVSTLIGDDLASCKDETDESSKEETEPQVLKFRVTCNRAGEKHCFTSNEAARDFGGAVQDYFKWKADMTNFDVEVLLNIHDNEVIVGIALTEESLHRRNITHFGPTTLRSTLAYGMLRLCDPLPYDIIVDPMCGTGAIPIEGATEWSDCFHIAGDNNPLAVNRAANNIASLLTKSQIKEGKPSWGLPIDAVQWDICNLPLRTGSVDIIVTDLPFGKRMGSKKRNWNLYPACLREMSRVCTPTTGRAVLLTQDTKCFTKALSGMRHVWRKVDTVWVNVGGLRAAVYVLIRTPQAFVHPSEQDGERGTLWQCKE [THUMPD3],-0.147,-1,-2.07,0.109,52.9 °C,53 °C
MVDYSVWDHIEVSDDEDETHPNIDTASLFRWRHQARVERMEQFQKEKEELDRGCRECKRKVAECQRKLKELEVAEGGKAELERLQAEAQQLRKEERSWEQKLEEMRKKEKSMPWNVDTLSKDGFSKSMVNTKPEKTEEDSEEVREQKHKTFVEKYEKQIKHFGMLRRWDDSQKYLSDNVHLVCEETANYLVIWCIDLEVEEKCALMEQVAHQTIVMQFILELAKSLKVDPRACFRQFFTKIKTADRQYMEGFNDELEAFKERVRGRAKLRIEKAMKEYEEEERKKRLGPGGLDPVEVYESLPEELQKCFDVKDVQMLQDAISKMDPTDAKYHMQRCIDSGLWVPNSKASEAKEGEEAGPGDPLLEAVPKTGDEKDVSV [CDC37],0.0658,0.438,-0.732,0.24,52.1 °C,52.6 °C
MAVVAAAAGWLLRLRAAGAEGHWRRLPGAGLARGFLHPAATVEDAAQRRQVAHFTFQPDPEPREYGQTQKMNLFQSVTSALDNSLAKDPTAVIFGEDVAFGGVFRCTVGLRDKYGKDRVFNTPLCEQGIVGFGIGIAVTGATAIAEIQFADYIFPAFDQIVNEAAKYRYRSGDLFNCGSLTIRSPWGCVGHGALYHSQSPEAFFAHCPGIKVVIPRSPFQAKGLLLSCIEDKNPCIFFEPKILYRAAAEEVPIEPYNIPLSQAEVIQEGSDVTLVAWGTQVHVIREVASMAKEKLGVSCEVIDLRTIIPWDVDTICKSVIKTGRLLISHEAPLTGGFASEISSTVQEECFLNLEAPISRVCGYDTPFPHIFEPFYIPDKWKCYDALRKMINY [BCKDHB],-0.179,-0.96,-1.83,-0.09,52.6 °C,52 °C
MAVEELQSIIKRCQILEEQDFKEEDFGLFQLAGQRCIEEGHTDQLLEIIQNEKNKVIIKNMGWNLVGPVVRCLLCKDKEDSKRKVYFLIFDLLVKLCNPKELLLGLLELIEEPSGKQISQSILLLLQPLQTVIQKLHNKAYSIGLALSTLWNQLSLLPVPYSKEQIQMDDYGLCQCCKALIEFTKPFVEEVIDNKENSLENEKLKDELLKFCFKSLKCPLLTAQFFEQSEEGGNDPFRYFASEIIGFLSAIGHPFPKMIFNHGRKKRTWNYLEFEEEENKQLADSMASLAYLVFVQGIHIDQLPMVLSPLYLLQFNMGHIEVFLQRTEESVISKGLELLENSLLRIEDNSLLYQYLEIKSFLTVPQGLVKVMTLCPIETLRKKSLAMLQLYINKLDSQGKYTLFRCLLNTSNHSGVEAFIIQNIKNQIDMSLKRTRNNKWFTGPQLISLLDLVLFLPEGAETDLLQNSDRIMASLNLLRYLVIKDNENDNQTGLWTELGNIENNFLKPLHIGLNMSKAHYEAEIKNSQEAQKSKDLCSITVSGEEIPNMPPEMQLKVLHSALFTFDLIESVLARVEELIEIKTKSTSEENIGIK [GLMN],-0.21,0.45,0.785,0.0671,52.2 °C,51.3 °C
KNTC1,-0.188,-0.336,0.546,-0.33,49.6 °C,49.4 °C
MEVSGPEDDPFLSQLHQVQCPVCQQMMPAAHINSHLDRCLLLHPAGHAEPAAGSHRAGERAKGPSPPGAKRRRLSESSALKQPATPTAAESSEGEGEEGDDGGETESRESYDAPPTPSGARLIPDFPVARSSSPGRKGSGKRPAAAAAAGSASPRSWDEAEAQEEEEAVGDGDGDGDADADGEDDPGHWDADAAEAATAFGASGGGRPHPRALAAEEIRQMLQGKPLADTMRPDTLQDYFGQSKAVGQDTLLRSLLETNEIPSLILWGPPGCGKTTLAHIIASNSKKHSIRFVTLSATNAKTNDVRDVIKQAQNEKSFFKRKTILFIDEIHRFNKSQQDTFLPHVECGTITLIGATTENPSFQVNAALLSRCRVIVLEKLPVEAMVTILMRAINSLGIHVLDSSRPTDPLSHSSNSSSEPAMFIEDKAVDTLAYLSDGDARAGLNGLQLAVLARLSSRKMFCKKSGQSYSPSRVLITENDVKEGLQRSHILYDRAGEEHYNCISALHKSMRGSDQNASLYWLARMLEGGEDPLYVARRLVRFASEDIGLADPSALTQAVAAYQGCHFIGMPECEVLLAQCVVYFARAPKSIEVYSAYNNVKACLRNHQGPLPPVPLHLRNAPTRLMKDLGYGKGYKYNPMYSEPVDQEYLPEELRGVDFFKQRRC [WRNIP1],-0.0694,2.61,5.06,0.228,47.5 °C,49.3 °C
MPPRRSIVEVKVLDVQKRRVPNKHYVYIIRVTWSSGSTEAIYRRYSKFFDLQMQMLDKFPMEGGQKDPKQRIIPFLPGKILFRRSHIRDVAVKRLIPIDEYCKALIQLPPYISQCDEVLQFFETRPEDLNPPKEEHIGKKKSGGDQTSVDPMVLEQYVVVANYQKQESSEISLSVGQVVDIIEKNESGWWFVSTAEEQGWVPATCLEGQDGVQDEFSLQPEEEEKYTVIYPYTARDQDEMNLERGAVVEVIQKNLEGWWKIRYQGKEGWAPASYLKKNSGEPLPPKPGPGSPSHPGALDLDGVSRQQNAVGREKELLSSQRDGRFEGRPVPDGDAKQRSPKMRQRPPPRRDMTIPRGLNLPKPPIPPQVEEEYYTIAEFQTTIPDGISFQAGLKVEVIEKNLSGWWYIQIEDKEGWAPATFIDKYKKTSNASRPNFLAPLPHEVTQLRLGEAAALENNTGSEATGPSRPLPDAPHGVMDSGLPWSKDWKGSKDVLRKASSDMSASAGYEEISDPDMEEKPSLPPRKESIIKSEGELLERERERQRTEQLRGPTPKPPGVILPMMPAKHIPPARDSRRPEPKPDKSRLFQLKNDMGLECGHKVLAKEVKKPNLRPISKSKTDLPEEKPDATPQNPFLKSRPQVRPKPAPSPKTEPPQGEDQVDICNLRSKLRPAKSQDKSLLDGEGPQAVGGQDVAFSRSFLPGEGPGRAQDRTGKQDGLSPKEISCRAPPRPAKTTDPVSKSVPVPLQEAPQQRPVVPPRRPPPPKKTSSSSRPLPEVRGPQCEGHESRAAPTPGRALLVPPKAKPFLSNSLGGQDDTRGKGSLGPWGTGKIGENREKAAAASVPNADGLKDSLYVAVADFEGDKDTSSFQEGTVFEVREKNSSGWWFCQVLSGAPSWEGWIPSNYLRKKP [SH3PXD2B],-0.129,-0.513,0.253,-0.0158,48.9 °C,49.9 °C
